{
  "source": "the DeepSol protein solubility set",
  "data": [
    {"assay": "soluble on expression in E. coli; label from the status in PepcDB or PDB records", "values": [
      {"sequence": "MIARPTPALGPTPIPRGGGILPRMDRIVIRGAREHNLKNISLELPRGKFIVITGVSGSGKSTLAFDTIYAEGQRRYVESLSSYARQFLGVMDKPEVESIEGLSPAISIDQKTTSHNPRSTVGTVTEIHDYLRLLFARVGQAFCPECGRPIEKQSASEITDRLLKRPPGTRAILMAPLVRGRKGEYRKLFQQLLKEGYARVRVDGVIYLLEEAQGLSLEKYEKHDIDLVIDRVVLKEEERPRIAEAVELALLRGEGLLRVLYPDTGEEELFSEKFACPEHGSVLEELEPRIFSFNSPYGACPACSGLGYRQEFDPELVVNPELSLAEGAILPWSRGRDTGRSYLWDRLRALAEHLGFDLKTPFKDLPEEAKRAVLYGLPEPFEVVFRRGGKETFRVEVRYEGVIPWLEKRYQESDSEGVREALEGFMSLRPCPACGGTRYKREVLSVKVAGRNIAEVSALPVREALAFFQGLEKTLPPFQAQIARPILREIVERLGFLVDVGLDYLTLDRAANTLSGGEAQRIRLATQVGSGLTGVLYVLDEPSIGLHPRDNQRLIRTLKRLRDLGNTLIVVEHDEETMRAADWIVDMGPGAGIHGGEVVAQGTLEDILKSPQSLTGAYLRGEKRIPVPKERRKGNGKWLVLKGARAHNLKNVTLRIPLGRFVAITGPSGSGKSTLVHDVLYAALAQRLMRAKTTPGPYEALEGVEHLDKVIEIDQSPIGRTPRSNPATYTGVFDEIRDLFAKTPEARKRGYGPGRFSFNVKGGRCEACGGDGTVKIEMLFLPDLYVPCEVCKGKRYNKETLEVKLRGKSIADVLDMTVEEALDFFQNVPSIARKLQLMVDVGLGYMKLGQPSPTLSGGEAQRIKLATELGRKATGRTLYILDEPTTGLHFDDVAKLLSVLHRLVDAGNTVVVIEHNLDVVKTADWVIDLGPEGGDRGGEIVAEGTPEEVALTGSPTGAFLARIPEIAARIGVAAD", "soluble on expression in E. coli": "soluble"},
      {"sequence": "MIARYQTPEMARLWSEESRYRMWARVEAYALEAWEALGEVPKGLSARLLAKLEEKPLDGAFARRVAELEAVTRHDLVAFTRALAEWTGDEEVGRYLHLGLTSSDIVDTAQNALLVEALGLVLEELKGVEEALKALALRHKHTPAIARTHGVHAEPTSFGLRFLFFLAAFQRDEERLKRARETIGVAMLSGSVGNYAHVPPEVEAHVASRLGLRPEPLSTQVVPRDRHAEVMAALAILGGNIERVAVELRHLQRTEVLEAQEPFHEGQTGSSSMPHKKNPVGLENLTGVARLLRGYLFPALEDIALWHERDISHSSVERVILPDATTLAHYALRRLKGILEGLEVFEENLARNLDLTRGLVYSQQVLNALIARGLSRNKAYALVQRNALRSWKEGKSFLELLEADPENPLKGKELRALFDPKPFLRHVDAIYARFGL", "soluble on expression in E. coli": "soluble"},
      {"sequence": "MIATLLSSLLLTGPISAGAETQGLLPAQDLLPDIGTSAGATLSIDQEMAMGDFYVRQMRASAPLIYDPLLTQYINTLGNRLVANANSVRTPFHFYLVNNDQINAFAFFGGNVVLHSALFRYTDNESELASVLAHEISHVTQRHLARAMEEQQRLAPLTWVGVLGSILLTMASPQAGMAGLSGTLAGAQQGIISFTQGNEQEADRIGIQVLQRSGFDPQAMPNFLQKLADQSRYVSKPPEMLLTHPLPDSRLSDARNRANQMKPHPTASSQDYLFAKMRILGMYGADENSLTPELLDKLSKGTVREQLAAKYGQAVQLYQAKKYDEARNLLQPLLAQQPGNIWFLDLMTDIDLGQNKSAAAIARLQNAMVKQNDEPVLQLNLANAYVQGRQPAAAIKLLHRYTFAYPNDPNGWDLLAQATATQGLRDQELAARAESLALSGKLTQAIGLLSDASARVKLGSLEQARYDARIDQLRRLNERFRKYQKS", "soluble on expression in E. coli": "not soluble"},
      {"sequence": "MIDFRPFYQQIATSHLSAWLETLPLQLKQWEKTAHSDYAKWAKIATSMPTSPTSINLTDKVEAVLAEALPEGEKQYLIYRLKQLMPWRKGPYHLHGVHIDTEWRSDFKWQRVLPHLAPLKDRTILDVGCGNGYHMWRMVGEDAQMVVGIDPTELFLCQFEAVRQLLGNDRRANLIPLGLEQMQPLAAFDTVFSMGVLYHRKSPLDHLSQLKAQLVKGGELVLETLIIDGDINDILTPADRYAKMKNVYFIPSVAALINWLKKIGFKNARCVDQSVTTLAEQRKTEWLENESLVDFLDPTDQRKTIEGLPAPKRAVILANA", "soluble on expression in E. coli": "not soluble"},
      {"sequence": "MIDISVVIPLLNEAESIPELFAWIRRVMNEHGYSYEVIFVDDGSTDGSWSVIERLQAEHPEVKGIKFRRNYGKSAGLQCGFARTQGQVVITMDADLQDSPDEIPELYRMVTEGGYDLVSGWKRKRYDPLFSKNLPSKLFNATARKLSGIKLHDFNCGLKAYRHEVVENIELYNDMHRYIPYLAKSAGFGRIGEKVVQHQARKYGSSKFGISRFFNGYLDLLTLWFISKFGRKPMH", "soluble on expression in E. coli": "not soluble"},
      {"sequence": "MIDKSSKRDKEVEPLKDNISILIMGVDGSEMRKSQYGEAVRTDALLLATINKDDKSVKLVSIPRDSRVYIPSRKKLDKITHAHVFGGVESTRDTVERFLNVPVDYYVKFNFESFVQIVDSLGGIDIDVPVTFTEQDSKDQAGMIHLEKGYQHLNGEQALALARTRKIDSDAMRGQRQQLVIEAIAKKAMSVQSISKMGSLLDAVDKNMKTNLTFDDMLAITKNMAGSNLEMEKMQVEGTDKRIGGIYYYIPNEKNVKDISKKLNEHLGVLEHHHHHH", "soluble on expression in E. coli": "soluble"},
      {"sequence": "MIDLAKDHLKKVLSLCGANRDCEYYPCHYENQSCLWCYCPFYPCEDENLGEFVKRKDGSLIWSCMKCNWIHKPEIASEVLKEITELTKDKKINDSIEFIDNHEILMNIKRRVEEKLGKDNSV", "soluble on expression in E. coli": "not soluble"},
      {"sequence": "MIDPREPIVTPVPVEELRPTQITVGMREVALKRQMIREQDAKKKTGAFLGKHMVPVVLGPKNRNYVTDHHHLARALLEEGVKDVLVTVISDLSALDKDTFLFVLDNRGWMHPFDESGRRRDYSAIPKTIGELIDDPYRSMAGELRRMGGFAKDTTPFSEFIWADFLRRRIDRNAVAKNFDKAMKEALSLAKGKDADYLPGWCGPTSDAAALEHHHHHH", "soluble on expression in E. coli": "soluble"},
      {"sequence": "MIEFRNVSKVYPNGTKGLNNINLKIQKGEFVVMVGLSGAGKSTLLRSVNRLHEITEGEIMIEGESITAAKGKGLRRMRRDIGMIFQSFNLVKRSTVLKNVLAGRVGYHSTLRTTLGLFPKEDLELAFQSLKRVNILEKAYARADELSGGQQQRVSIARALAQEAKIILADEPVASLDPLTTKQVLEDLKKINEDFGITTIVNLHSIDLARQYATRIIGLHAGEIVFDGLVEEATDEKFAEIYGDVVQKSELLEVAVK", "soluble on expression in E. coli": "not soluble"},
      {"sequence": "MIEFVYPHTQLVAGVDEVGRGPLVGAVVTAAVILDPARPIAGLNDSKKLSEKRRLALYEEIKEKALSWSLGRAEPHEIDELNILHATMLAMQRAVAGLHIAPEYVLIDGNRCPKLPMPAMAVVKGDSRVPEISAASILAKVTRDAEMAALDIVFPQYGFAQHKGYPTAFHLEKLAEHGATEHHRRSFGPVKRALGLAS", "soluble on expression in E. coli": "soluble"},
      {"sequence": "MIELHQKRLSAPKTYKIPRKVSKWVVKPSPGPHNKEAIPLLVLVRDFLELADTGREARRIISAGEILVDGVVRKDYKFPVGLFDVVTIPKLEKSYRILFDEKGRYIPKEVEDADLKLYKITNKTLVRGGKVQLNLFDGTNILGSNDYKTKDSILLRIPEKEVVDHLKFEEGALVMITGGTHAGEIGRIKSYKIVRSSAPNLVTVEGEERDITTIEDYVFVVGKKDSDKPVIDLGVLEHHHHHH", "soluble on expression in E. coli": "soluble"},
      {"sequence": "MIERRKIAVIGSGQIGGNIAYIVGKDNLADVVLFDIAEGIPQGKALDITHSMVMFGSTSKVIGTNDYADISGSDVVIITASIPGRPKDDRSELLFGNARILDSVAEGVKKYCPNAFVICITNPLDVMVSHFQKVSGLPHNKVCGMAGVLDSSRFRTFIAQHFGVNASDVSANVIGGHGDGMVPATSSVSVGGVPLSSFIKQGLITQEQIDEIVCHTRIAWKEVADNLKTGTAYFAPAAAAVKMAEAYLKDKKAVVPCSAFCSNHYGVKGIYMGVPTIIGKNGVEDILELDLTPLEQKLLGESINEVNTISKVLDNAPAAGA", "soluble on expression in E. coli": "soluble"},
      {"sequence": "MIESERKQIIDLIKKEVIPAIGCTEPIAVALCVAKAAETLGMKPEKIEVLLSANILKNAMGVGIPGTDMVGLPIAVALGALIGRSEYQLEVLRDCTPEAVEQGKLFIAEKRICISLKEDITEKLYIEVICTAGSQKATAVIAGGHTTFVYIATDEKVLLDKQQTANEEEEDASLELNLRKVYDFALTSPLDEIRFILDTARLNKAAAEQAFKGNYGHSLGKMLRGTYEHKVMGDSVFSHILSYTSAACDARMAGAMIPVMSNSGSGNQGISATLPVVVFAEENGKTEEELIRALMLSHLTVIYIKQSLGRLSALCGCVVAATGSSCGITWLMGGNYNQVAFAVQNMIANLTGMICDGAKPSCALKVTTGVSTAVLSAMMAMEDRCVTSVEGIIDEDVDQSIRNLTRIGSQAMNETDKMVLDIMTHKGGC", "soluble on expression in E. coli": "not soluble"},
      {"sequence": "MIESNHVVLWNRCLEVIKDNVPETTYNTWFAPIVPLKYEDKTLIVQIPSQFFYEILEEKFVDLLRKTLYKAIGEGTKLMYNVMVDKTSIPNQTVNLEASNRSTAVTPKSIVGGNKAPSFLKAPAVQDLDPHLNPNYNFENFIEGYSNKLSRSVAEAVAQNPAGTAFNPLFLYGASGVGKTHLANAIGTKIKELYADKRVLYVSAHLFQVQYTDSVRNNTTNDFINFYQTIDVLIIDDIQEFAGVTKTQNTFFHIFNHLHQNGKQLILTSDRAPVLLQGMEERLLTRFKWGMVAELEKPTVELRKNILRNKIHRDGLQFPPEVIDYIAENVNESVRDLEGIVIAIMARSTIFNKEIDLDLAQHIVHGVVHNETKAVTIDDILKVVCKHFDLEASAIHTKSRKREVVQARQIAMYLAKNYTDFSTSKIGKFIGNKDHATVLHACKTVKGQLEVDKSFQAEVQEIESLLKKKALEHHHHHH", "soluble on expression in E. coli": "soluble"},
      {"sequence": "MIETPYYLIDKAKLTRNMERIAHVREKSGAKALLALKCFATWSVFDLMRDYMDGTTSSSLFEVRLGRERFGKETHAYSVAYGDNEIDEVVSHADKIIFNSISQLERFADKAAGIARGLRLNPQVSSSSFDLADPARPFSRLGEWDVPKVERVMDRINGFMIHNNCENKDFGLFDRMLGEIEERFGALIARVDWVSLGGGIHFTGDDYPVDAFSARLRAFSDRYGVQIYLEPGEASITKSTTLEVTVLDTLYNGKNLAIVDSSIEAHMLDLLIYRETAKVLPNEGSHSYMICGKSCLAGDVFGEFRFAEELKVGDRISFQDAAGYTMVKKNWFNGVKMPAIAIRELDGSVRTVREFTYADYEQSLS", "soluble on expression in E. coli": "soluble"},
      {"sequence": "MIEVAEIIAREIRRGKIVEIGVGFYLEVAKRLRESGIDILVVDINEKAINYARKQGIKGVVDDIFNPTLGIYKDAKAIYSIRPAPEMMKPLLDLARKLKIPLYIVPLTGDRTPNGMKLINYKGIPIYKWEP", "soluble on expression in E. coli": "soluble"},
      {"sequence": "MIFEQGIEIKASATVVEQCFTDLDLMHLWLNPALRCEPIGQWSTAIGGRSRFTIQIPLLKPSLKSVVVERSPGLVVWQFKGFFQGQDRWECRPLEEGTYLLNRFEFTVPNPVVQWGFQMFAARWTSADMQAQLRRLKQVAEREYINSLEHHHHHH", "soluble on expression in E. coli": "not soluble"},
      {"sequence": "MIFRKFLNFLKPYKMRTDPIIFVIGCTGTGKSDLGVAIAKKYGGEVISVDSMQFYKGLDIATNKITEEESEGIQHHMMSFLNPSESSSYNVHSFREVTLDLIKKIRARSKIPVIVGGTTYYAESVLYENNLIETNTSDDVDSKSRTSSESSSEDTEEGISNQELWDELKKIDEKSALLLHPNNRYRVQRALQIFRETGIRKSELVEKQKSDETVDLGGRLRFDNSLVIFMDATPEVLEERLDGRVDKMIKLGLKNELIEFYNEHAEYINHSKYGVMQCIGLKEFVPWLNLDPSERDTLNGDKLFKQGCDDVKLHTRQYARRQRRWYRSRLLKRSDGDRKMASTKMLDTSDKYRIISDGMDIVDQWMNGIDLFEDISTDTNPILKGSDANILLNCEICNISMTGKDNWQKHIDGKKHKHHAKQKKLAETRT", "soluble on expression in E. coli": "not soluble"}
    ]}
  ]
}
